# Measured values as given in US20100151486A1, “OSTEOPONTIN FUNCTIONAL EPITOPES, MONOCLONAL ANTIBODIES AGAINST THE EPITOPES AND USES THEREOF” (SHANGHAI NATIONAL ENGINEERING RESEARCH CENTER OF A, priority 2007, published 2010).
# B1: humanized anti-hOPN antibody h1A12 (h1A12Hb/h1A12Lb) (antibody, human IgG1, kappa, V domains shown)
# VH: QVQLVQSGAEVKKPGASVKVSCKSSGYTFTTYVMHWVKQAPGQGLEWIGYINPYNDGSKYNEKFKGRVTITSDKSASTAYMELSSLRSEDTAVYYCASHYGGSPAYWGQGTLVTVSS
# VL: DVLMTQSPLSLPVTLGQPASISCRSSQSLVHSNGNTYLHWFQQRPGQSPKLLIYKVSNRFSGVPDRFSGSGSGTDFTLKISRVEAEDVGVYYCSQSTHVPWTFGGGTKVEIKR
# notes: Tested as COS-1 supernatant in the ELISA; also called humanized antibody 1A12
# B2: c1A12: chimeric anti-hOPN mAb between human and murine; VH SEQ ID NO: 4, VL SEQ ID NO: 6, human constant region (antibody, V domains shown)
# VH: QVQLEQSGPELVKPGASVKMSCKSSGYTFTTYVMHWVKQKPGQGLEWIGYINPYNDGSKYNEKFKGKATLTSDKSSNTAYMELSSLTSEDSAVYYCASHYGGSPAYWGQGTLVTVSA
# VL: DILMTQTPLSLPVSLGDQASISCRSSQSLVHSNGNTYLHWYLQKPGQSPKLLIYKVSNRFSGVPDRFSGSGSGTDFTLKISRVEAEDLGVYFCSQSTHVPWTFGGGTKLEIKR
# modifications: human constant regions; amino acid sequence of the heavy chain variable region in 1A12; amino acid sequence of the light chain variable region in 1A12
# B3: h1A12: humanized anti-hOPN mAb; VH SEQ ID NO: 19, VL SEQ ID NO: 21, human constant region (antibody, V domains shown)
# VH: B1 VH
# VL: B1 VL
# modifications: human constant regions; amino acid sequence of the VH in humanized anti-OPN antibody H1A12; amino acid sequence of the VL in humanized anti-OPN antibody H1A12
# Tests used:
# [1] = molecular target: T1, human osteopontin (human OPN protein) (human, UniProt P10451 17-314, limits assumed); assay: ELISA, plate coated with OPN 2 ug/ml, COS-1 supernatant, HRP-rabbit anti-human IgG
# T1 construct: The isoform follows from the 963 bp PCR fragment and is not otherwise stated; also called hOPN
# Method: An ELISA plate was coated with 2 ug/ml OPN. The binding activity of the humanized antibody obtained from the transfection was detected by ELISA. […] The amino acid sequences of the h1A12HBb's and the h1A12Lb's variable regions were shown in FIG. 4, SEQ ID NO: 18 and SEQ ID NO: 19 show the nucleotide sequence and the amino acid sequence of h1A12Hb's variable region respectively. SEQ ID NO: 20 and SEQ ID NO: 21 show the nucleotide sequence and the amino acid sequence of h1A12Lb's variable region respectively. The genes of the humanized antibody's VH and VL (h1A12VHb/h1A12VLb) were synthesized respectively. […] Then, expression vectors of the light and the heavy chain were used to co-transfect the COS-1 cells. The antibody's antigen-binding activity was determined by ELISA. Specifically, an ELISA plate was coated with OPN protein (2 ug/ml) coated at 4° C. overnight, and was blocked with 2% BSA-PBS for 2 h at 37° C. […] HRP-rabbit anti-human IgG was added into the plate for binding reaction (incubated at 37° C. for 1 h).
# MDA-MB-435s cells [2] = assay: Cell adhesion assay on hOPN-coated plate; assay type: cell-based; details: antibody 25 μg/ml; plate coated with 10 μg/ml hOPN; 2 hrs
# Method: MDA-MB-435s was purchased from the Institute of Cell Biology of Chinese Academy of Sciences (Shanghai, China), and 23C3D3 was used as the irrelevant antibody.
# A 96-well plate (Greiner) was coated with 10 μg/ml hOPN (prepared in Example 3) or BSA (SIGMA) at 4° C. overnight, and was then blocked with 1% BSA/PBS at 37° C. for 1 hour to block any non-specific binding sites. The MDA-MB-435s cells were detached using 0.2% EDTA and then re-suspended in 0.25% BSA/DMEM at the concentration of 5×10^5 cells/ml. To each well, 100 μl (5×10^4) MDA-MB-435s cells were added in the presence of various anti-OPN antibodies (25 μg/ml) murine anti-human OPN antibody 1A12, the human-murine chimeric antibody c 1A12 or the humanized antibody h1A12 as treatment groups and the irrelevant antibody 23C3 as control (25 μg/ml). After incubation at 37° C. for 2 hrs, the medium was removed and washed twice with PBS gently. The adherent cells were fixed in 1% formaldehyde at 4° C. for 10 minutes, stained with 0.5% crystal violet after washed with PBS and lysed with 2% Triton X-100 (50 μl). The absorbance was measured at 595 nm.
# MDA-MB-435s cells [3] = assay: Cell invasion assay (Transwell, Matrigel); assay type: cell-based; details: antibody 25 μg/ml; in the presence of hOPN; 24 hours
# Method: The assay of cell invasion was carried out using the Transwell system (Corning) with the pore size of […]. The basement membrane of the upper chamber was coated with the artificial matrix gel (Matrigel). After being dried in a flame hood, the matrigel was hydrated with DMEM at 37° C. for 1 hour. MDA-MB-435s cells were detached using 0.2% EDTA and suspended in 0.25% BSA/DMEM at the concentration of 5×10^5 cells/ml. 100 μl of the obtained cell suspension as well as the following 25 μg/nil of antibodies were respectively added into the upper chamber of each well: 1A12 (murine anti-human OPN antibody), c1A12 (human-mouse chimeric antibody), h1A12 (humanized antibody), and 23C3 (irrelevant antibody control). To lower chamber, 0.25% of BSA/DMEM (with or without OPN) was added. The system was then incubated in incubator at 37° C. for 24 hours. After that, the cells remaining in the upper chamber was wiped away using a cotton swab, and the cells penetrate through the basement membrane into the lower chamber were washed with PBS, fixed with 1% formaldehyde, and then stained with 0.5% crystal violet. The cells were counted in the field at 200× magnification under a microscope.
# MDA-MB-435s cells [4] = assay: Scratch wound healing assay; assay type: cell-based; details: antibody 25 μg/ml; 24 hours
# Method: The MDA-MB-435s cells cultured in a 12-wells plate to almost confluent (90%) washed with PBS and starved overnight with serum-free DMEM. Scratches were made on the cell monolayer using a 10 μl pipette, and PBS was added to wash away the floating cells. The test groups were treated with 25 μg/ml of the murine anti-human OPN antibody 1A12, the human-murine chimeric antibody c1A12 and the humanized antibody h1A12, and the control group, 25 μg/ml of the irrelevant antibody. The cells were incubated in an incubator at 37° C. for 24 hours. The result was expressed as the number of the cells that cross the base line.
# MDA-MB-435s cells [5] = assay: Clone formation on soft agar assay; assay type: cell-based; details: antibody 25 μg/ml every other day; 3 weeks
# Method: The assay of clone formation on soft agar was conducted using a double-layer soft agar system. 2.5% melted agar was mixed the DMEM medium pre-warmed at 37° C. to formulate a 0.5% agar solution, which was then diluted with DMEM to a 0.3% agar solution. To each well of a 24-well plate was added 500 μl of a 0.5% agar solution, which was allowed to gel at 4° C., and then kept warm in an incubator at 37°C. The MDA-MB-435s cells were detached using 0.2% .EDTA and suspended in the 0.3% agar solution at the concentration of 5×10^3 cells/ml. 500 μl of the cell suspension was added each well and left to gel. From the second day, the cells were respectively treated with 1A12, c1A12, h1A12 or the irrelevant antibody (23C3D3) (25 μg/ml) every other day. After 3 weeks, the colony formation ability was evaluated by measuring the size of colonies containing more than 10 cells.
# [6] = system: human vascular endothelial cell (HUVEC); assay: HUVEC proliferation by 3H-TdR incorporation; assay type: cell-based; details: M200+1% BSA+OPN+antibody; 24 hours
# Method: HUVEC cell proliferation was measured by the ^3H-TdR incorporation method to determine the protective effect of OPN on cell survival and the inhibitory effect of the anti-OPN antibodies on the OPN protection. Each well of a 96-well plate was inoculated with 2×10^4 HUVECs and cultured in a complete medium for 24 hours. The cells were then treated as following for 24 hours: […]
# iv. M200+1% BSA+OPN+murine anti-OPN antibody 1A12 v. M200+1% , BSA+OPN+human-murine chimeric anti-OPN antibody c1A12 vi. M200+1% BSA+OPN+humanized anti-OPN antibody h1A12 vii. M200+1% BSA+OPN+irrelevant antibody
# 24 hours later, 1 uCi/well ^3H-thymidine was added and, after being incubated at 37° C. for 6 hours, washed once with PBS. The plate was treated with ice-cold 10% trichloroacetic acid/H2O at 4° C. for 10 min, and then washed for two times with, ice-cold ddH2O. Cytolysis was conducted by adding into each well 0.1 ml of 0.5 N NaOH, 0.5% SDS at room temperature for 10 min. After adding 0.2 ml of 0.5 N HCl and mixing, the cells were collected using a multiple cell collector.
# HUVECs = assay: Formation of capillary-like structure in HUVECs on matrigel; assay type: cell-based, human
# Method: HUVECs were cultured in the M200 medium containing LCGS to 80% confluence. The matrigel stored at −20° C. was took out the day before experiment and naturally thawed at 4° C. for 3 to 12 hours. To each well of a 96-welt plate was added […] using a pre-cooled pipet with carefully removing the bubbles, wherein the whole procedure was carried on ice. The loaded plate was incubated at 37° C. for 1 hour to gel the matrigel. To each well, 100 μl HUVECs (2×10^4/well) was gently added onto the surface of matrigel. To the treatment groups were further added the anti-hOPN antibodies 1A12, c1A12 and h1A12. The plate was incubated at 37° C. for […], and the formation of the capillary-like structure was observed 6 hours after.
# rabbit cornea = assay: OPN-induced rabbit corneal neovascularization; assay type: in vivo; details: pellet with 200 ng hOPN and 1 μg antibody; for area of neovascularization / length of the newly generated blood vessels: relative to irrelevant antibody group, P<0,01
# Method: The Hydron powder was dissolved in anhydrous ethanol under sterile condition to the final concentration of 12% (w/v), and dissolved with agitation under 37° C. to formulate the 12% Hydron cast solution, which was then stored at room temperature. A quota of sucralfate powder formulated in sterile Milli Q water under sterile conditions as a suspension with the final concentration of 100 μg/μl, which was stored at 4° C., and vortexed to homogeneous intermediately before use. Sustained-release pellets were prepared to each containing 200 ng hOPN and 50 μg sucralfate and, for the antibody groups, 1 μg anti-OPN antibodies, and for the control, the irrelevant antibody. The 12% Flydron east solution and the hOPN-sucralfate-PBS blend were mixed as the ratio of 1:1 (volume ratio), vortexed for 1 min. Then 5 μl mixed Hydron-sucralfate-hOPN solution was added onto a sterilized Parafilm surface, dried for about 30 min on a super-clean bench for a complete polymerization. The polymers were then shaped into uniform circular granules with a 2 mm diameter using an eye tweezers. The granules were stored at −20′C. Animals were grouped in the same way as in Experiment II-3, each group consisting of four eyes.
# The rabbit was anesthetized at ear edge vein with 3% sodium pentobarbital (1 ml/kg body weight) and on both corneal surfaces with 1% tetracaine. The thickness of the cornea was measured using an ultrasonic cornea thickness gauge. A 3 mm half-depth incision was made at the center of the cornea using an ophthalmic knife, and an undermining tunnel toward the 12 o'clock or 3 o'clock position on the corneoscleral margin was made using a 2 mm-wide scleral tunnel knife, whereby the tunnel lied within the corneal layer with the top of the tunnel about 1 mm distant from the limbus corneae. The Hydron/sucralfate sustained-release pellet was implanted into the top of tunnel using micro-tweezers. The cuts were treated with chlortetracycline eye ointment after the surgery. From Day 1 after the surgery, the double-blinded observer observed the rabbit conical neovascularization under the slit-lamp each day, until the Day 10, The length (VL) and the vascular clock angle (CN, 30°=1CN) of the longest vessel were measured, and the area of neovascularization was calculated according to the following formula:
# Area (mm^2)=0.2×π×VL (mm)×CN (mm)
# T1 sequence (P10451 17-314 limits assumed): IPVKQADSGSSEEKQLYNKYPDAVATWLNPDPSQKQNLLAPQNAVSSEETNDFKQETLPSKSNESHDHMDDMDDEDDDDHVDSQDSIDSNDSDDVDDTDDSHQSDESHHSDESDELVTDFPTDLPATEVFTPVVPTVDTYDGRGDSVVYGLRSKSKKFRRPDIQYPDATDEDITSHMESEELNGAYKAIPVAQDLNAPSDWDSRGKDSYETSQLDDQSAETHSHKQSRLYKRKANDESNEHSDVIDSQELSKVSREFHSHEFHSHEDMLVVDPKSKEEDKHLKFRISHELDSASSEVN
Molecule,binding result [1],blocking of the binding between MDA-MB-435s cells and hOPN (MDA-MB-435s cells [2]),blocking of invasion of the basement membrane by MDA-MB-435s (MDA-MB-435s cells [3]),inhibition of the reparation of the scratches and damages (MDA-MB-435s cells [4]),inhibition of clone size formed by MDA-MB-435s cells on soft agar (MDA-MB-435s cells [5]),3H-TdR incorporation relative to the OPN group [6],potency of forming the capillary-like structure in HUVECs (HUVECs),corneal neovascularization relative to the OPN group (rabbit cornea),area of neovascularization (rabbit cornea),length of the newly generated blood vessels (rabbit cornea)
B1,binds,–,–,–,–,–,–,–,–,–
B2,–,effectively block,effectively block,effectively inhibit,no significant differences,significantly lower,reduce,significantly reduced,significantly shrunk,significantly reduced
B3,–,effectively block,effectively block,effectively inhibit,no significant differences,significantly lower,reduce,significantly reduced,significantly shrunk,significantly reduced
